The values below come from US20200318071A1.

The target in this test is human CD33 (full length, CD33M) (human) (UniProt P20138). The test can be described thus: cell-based or functional assay.
Chain of UniProt P20138 (P20138 18-364 limits assumed): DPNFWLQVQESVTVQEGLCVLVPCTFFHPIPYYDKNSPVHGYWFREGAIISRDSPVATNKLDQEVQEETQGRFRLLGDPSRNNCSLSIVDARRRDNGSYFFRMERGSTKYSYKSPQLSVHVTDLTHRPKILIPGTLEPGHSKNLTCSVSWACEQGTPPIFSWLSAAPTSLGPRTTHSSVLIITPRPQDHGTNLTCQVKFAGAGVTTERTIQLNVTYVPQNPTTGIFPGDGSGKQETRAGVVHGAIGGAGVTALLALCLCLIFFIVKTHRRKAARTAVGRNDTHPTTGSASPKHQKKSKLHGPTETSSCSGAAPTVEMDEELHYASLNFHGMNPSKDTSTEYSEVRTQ

On to gemtuzumab ozogamicin (antibody), for which the IC50 of GO cytotoxicity, HL-60 cells (viable cell number, Celltiter Glo, 72 hours) turned out to be 0.0355 µg/mL and the IC50 of GO cytotoxicity, THP-1 cells (viable cell number, Celltiter Glo, 72 hours) worked out at 0.0163 µg/mL.
